From patent US20100028347A1 (Eli Lilly, published 2010)
Numbering of substitutions follows the chain as printed.

B1: DC101 (antibody, V domains shown)
VH: EVQLVETGGGLVQPGNSLKLSCATSGFIFSTTWMNWIRQTPGKRLEWLAQIEDKSNNYFISYSESVKGRFTISRDDSKSSVYLQMNNLKEEDTAIYYCSWKYRSNYYFDYWGQGVMVTVSS
VL: DIVLTQSPALAVSLEQRATISCKTSQNVDYYGISYLHWYQQKPGQQPKLLIYEGSNLASGIPARFSGSGSGTDFTLTIDPVEADDIVTYYCQQSKDYPYTFGAGTKLELK
B2: anti-VEGFR-1 antibody clone 13G12 (antibody, human IgG1, V domains shown)
VH: QVQLVESGGGVVQPGRSLRLSCAASGFTFSSYGMHWVRQAPGKGLEWVAVIWYDGSNKYYADSVKGRFTISRDNSKNTLYLQMNSLRAEDTAVYYCARDHYGSGAHYYYYYGMDVWGQGTTVTVSS
VL: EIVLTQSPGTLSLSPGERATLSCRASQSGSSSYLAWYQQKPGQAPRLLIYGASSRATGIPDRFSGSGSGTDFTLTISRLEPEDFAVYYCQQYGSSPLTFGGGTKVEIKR
notes: Fully human antibody (gamma heavy chain, kappa light chain) from hybridomas of KM transgenic mice, purified; The light chain entry runs a few residues into the kappa constant region
B3: anti-VEGFR-1 antibody clone 15F11 (antibody, V domains shown)
VH: B2 VH with Y53F, Y107S, M113L, T121S
VL: not shown
notes: Fully human antibody (gamma heavy chain, kappa light chain) from hybridomas of KM transgenic mice, purified; The light chain entry runs a few residues into the kappa constant region; also called FI1
B4: anti-VEGFR-1 antibody clone 6F9 (antibody, human IgG1, V domains shown)
VH: B2 VH with L79V, Y95H, A97T, Y101F
VL: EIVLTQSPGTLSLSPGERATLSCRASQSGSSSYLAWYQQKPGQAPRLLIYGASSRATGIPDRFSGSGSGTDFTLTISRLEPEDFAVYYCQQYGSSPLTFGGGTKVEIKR
notes: Fully human antibody (gamma heavy chain, kappa light chain) from hybridomas of KM transgenic mice, purified
B5: human VEGF165 (ligand, UniProt P15692-4 27-191, looked up)
chain: APMAEGGGQNHHEVVKFMDVYQRSYCHPIETLVDIFQEYPDEIEYIFKPSCVPLMRCGGCCNDEGLECVPTEESNITMQIMRIKPHQGQHIGEMSFLQHNKCECRPKKDRARQENPCGPCSERRKHLFVQDPQTCKCSCKNTDSRCKARQLELNERTCRCDKPRR

Tests used:
mouse VEGFR-2 Fc = target: T1, mouse VEGFR-2 Fc (mouse, UniProt P35918 20-762, limits assumed); experiment: ELISA: antibody dilutions on plate coated with 1 µg/ml mouse VEGFR-2 Fc, HRP secondary, O.D. 450
T1 construct: not shown: Fc part; not described
T1 sequence (P35918 20-762 limits assumed): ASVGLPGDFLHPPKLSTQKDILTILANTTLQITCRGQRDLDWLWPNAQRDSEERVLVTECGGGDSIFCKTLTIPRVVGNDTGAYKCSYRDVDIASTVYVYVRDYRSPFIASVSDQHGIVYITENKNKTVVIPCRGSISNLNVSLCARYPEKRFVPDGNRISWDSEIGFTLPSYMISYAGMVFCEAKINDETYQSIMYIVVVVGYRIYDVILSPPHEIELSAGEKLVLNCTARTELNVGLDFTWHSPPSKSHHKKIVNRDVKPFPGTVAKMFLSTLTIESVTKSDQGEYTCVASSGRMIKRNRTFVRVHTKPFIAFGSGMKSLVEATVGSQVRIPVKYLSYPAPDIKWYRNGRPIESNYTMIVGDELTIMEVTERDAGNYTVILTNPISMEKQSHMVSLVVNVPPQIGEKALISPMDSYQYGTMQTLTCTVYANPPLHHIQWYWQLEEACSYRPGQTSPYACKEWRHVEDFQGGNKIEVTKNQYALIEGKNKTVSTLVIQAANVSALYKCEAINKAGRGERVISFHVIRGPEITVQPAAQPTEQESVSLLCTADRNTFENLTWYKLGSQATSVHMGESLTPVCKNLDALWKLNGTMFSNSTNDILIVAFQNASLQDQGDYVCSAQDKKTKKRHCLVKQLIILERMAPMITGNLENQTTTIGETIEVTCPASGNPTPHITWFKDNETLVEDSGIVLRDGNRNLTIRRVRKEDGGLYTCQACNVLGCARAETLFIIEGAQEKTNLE
Procedure: To determine the specificity of an anti-VEGFR-1 monoclonal antibody to human VEGFR-I, purified antibodies 18F1 were tested in an ELISA-based assay. One μg/ml of recombinant human VEGFR-I Fc, mouse VEGFR-I Fc, mouse VEGFR-2 Fc, or human VEGFR-2 alkaline phosphatase was coated with PBS in a 96-well microtiter plates at 4° C. over night. After wash, the receptor coated plates were blocked with PBS containing 5% Dry Milk and 0.05% Tween 20. Serial dilutions of primary antibody 18F1 to human VEGFR-I, MF1 to mouse VEGFR-I, IC1 1 to human VEGFR-2, or DClOl to mouse VEGFR-2 were incubated in the receptor-coated plates for 30 minutes. After wash secondary anti-primary HRP conjugate antibodies was incubated in the plates for 30 minutes. Plates were washed and incubated with the substrate TMB (3,3′,5,5′-tetra-methylbenzidine) for color development. The absorbance at 450 nm was read as OD values for quantification of binding activity of antibodies. Data were analyzed using a GraphPad Prism Software.

[1] = target: T2, soluble recombinant human VEGFR-1 alkaline phosphatase (human, UniProt P17948 27-758); experiment: ELISA, purified antibody on rhuVEGFR-1 AP coated plate (given as ED50)
T2 construct: Made in house in stably transfected cells; also called rhuVEGFR-I AP; VEGFR-I AP; not shown: alkaline phosphatase fusion partner
T2 sequence (P17948 27-758): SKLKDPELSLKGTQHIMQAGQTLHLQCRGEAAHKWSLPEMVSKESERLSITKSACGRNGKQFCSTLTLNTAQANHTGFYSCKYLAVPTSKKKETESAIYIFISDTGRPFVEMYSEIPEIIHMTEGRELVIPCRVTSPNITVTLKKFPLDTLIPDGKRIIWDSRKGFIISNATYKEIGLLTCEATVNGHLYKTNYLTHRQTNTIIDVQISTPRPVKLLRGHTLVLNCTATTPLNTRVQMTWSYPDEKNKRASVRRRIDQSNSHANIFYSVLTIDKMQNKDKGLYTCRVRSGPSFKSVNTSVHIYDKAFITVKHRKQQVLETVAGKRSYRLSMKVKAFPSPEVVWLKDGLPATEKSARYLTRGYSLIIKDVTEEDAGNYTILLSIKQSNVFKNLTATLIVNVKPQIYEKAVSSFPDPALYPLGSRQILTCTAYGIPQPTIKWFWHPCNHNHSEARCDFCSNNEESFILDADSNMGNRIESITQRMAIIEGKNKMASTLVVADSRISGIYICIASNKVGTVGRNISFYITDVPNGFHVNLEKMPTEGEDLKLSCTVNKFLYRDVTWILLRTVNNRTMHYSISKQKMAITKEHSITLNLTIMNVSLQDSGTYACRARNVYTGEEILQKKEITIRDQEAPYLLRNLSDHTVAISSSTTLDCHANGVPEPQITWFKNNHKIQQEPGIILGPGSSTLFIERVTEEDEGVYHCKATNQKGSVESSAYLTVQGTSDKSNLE
Procedure: (§1) Specifically, hybridoma supernatants or purified antibodies were diluted in PBS with 5% FBS and 0.05% Tween 20 (ELISA buffer) and incubated in rhuVEGFR-I AP or AP coated 96-well microtiter plates for 30 minutes. Plates were washed with the ELISA buffer and incubated with goat anti-mouse IgG-horseradish peroxidase (HRP) conjugate (BioSource International, Camarillo, Calif.) for 30 minutes. TMB (3,3′,5,5′-tetra-methylbenzidine) substrate (Kierkegaard and Perry Lab, Inc., Gaithersburg, Md.) was used for color development following the manufacturer's instruction. The absorbance at 450 nanometers (nm) was read for quantification of binding activity of antibodies. For identification of the hybridomas producing anti-VEGFR-I antibodies, hybridoma supernatants were preincubated with VEGFR-I AP for 1 hour. The mixtures were incubated with the ELISA buffer in VEGF or P1GF coated 96-well microtiter plates for 1 hour. PNPP (p-nitrophenyl phosphate) substrate for AP was used for color development following the manufacturer's instruction. The absorbance at 405 nm was read for quantification of VEGFR-I binding to VEGF or P1GF. Optical density (OD) values were read on a microtiter plate reader (Molecular Devices Corp., Sunnyvale, Calif.). ED50 and IC50 of the antibodies were analyzed using GraphPad Prism 3 software (GraphPad Software, Inc., San Diego, Calif.).

[2] = target: T2, soluble recombinant human VEGFR-1 …; experiment: blocking ELISA: antibody preincubated with VEGFR-1 AP, binding to VEGF coated plate
Procedure: as §1

[3] = target: T2, soluble recombinant human VEGFR-1 …; experiment: blocking ELISA: antibody preincubated with VEGFR-1 AP, binding to PlGF coated plate
Procedure: as §1

[4] = target: T3, recombinant extracellular domain of VEGFR-1 (UniProt P17948 27-758, limits assumed); experiment: SPR, BIAcore 2000, VEGFR-1 extracellular domain immobilised at low density
T3 construct: extracellular domain
T3 sequence (P17948 27-758 limits assumed): as the sequence (P17948 27-758) above
Procedure: Affinities of anti-VEGFR-1 antibody clones 6F9, 13 G12, 15F1 1, 18F1 were determined by plasmon resonance technology using BIAcore 2000 (Pharmacia, Piscataway, N.J.) according to the procedures provided by the manufacturer. Kinetic analyses of the antibodies were performed by immobilization of recombinant extracellular domain of VEGFR-I onto a sensor surface at a low density. The (kₒₙ) and dissociation (kₒ_{^ff}) rates were determined using the BIAevaluation 2.1 software provided by the manufacturer.

[5] = target: T4, native VEGFR-1 expressed on the cell surface (human, UniProt P17948 27-1338); experiment: cell-based or functional assay
T4 sequence (P17948 27-1338): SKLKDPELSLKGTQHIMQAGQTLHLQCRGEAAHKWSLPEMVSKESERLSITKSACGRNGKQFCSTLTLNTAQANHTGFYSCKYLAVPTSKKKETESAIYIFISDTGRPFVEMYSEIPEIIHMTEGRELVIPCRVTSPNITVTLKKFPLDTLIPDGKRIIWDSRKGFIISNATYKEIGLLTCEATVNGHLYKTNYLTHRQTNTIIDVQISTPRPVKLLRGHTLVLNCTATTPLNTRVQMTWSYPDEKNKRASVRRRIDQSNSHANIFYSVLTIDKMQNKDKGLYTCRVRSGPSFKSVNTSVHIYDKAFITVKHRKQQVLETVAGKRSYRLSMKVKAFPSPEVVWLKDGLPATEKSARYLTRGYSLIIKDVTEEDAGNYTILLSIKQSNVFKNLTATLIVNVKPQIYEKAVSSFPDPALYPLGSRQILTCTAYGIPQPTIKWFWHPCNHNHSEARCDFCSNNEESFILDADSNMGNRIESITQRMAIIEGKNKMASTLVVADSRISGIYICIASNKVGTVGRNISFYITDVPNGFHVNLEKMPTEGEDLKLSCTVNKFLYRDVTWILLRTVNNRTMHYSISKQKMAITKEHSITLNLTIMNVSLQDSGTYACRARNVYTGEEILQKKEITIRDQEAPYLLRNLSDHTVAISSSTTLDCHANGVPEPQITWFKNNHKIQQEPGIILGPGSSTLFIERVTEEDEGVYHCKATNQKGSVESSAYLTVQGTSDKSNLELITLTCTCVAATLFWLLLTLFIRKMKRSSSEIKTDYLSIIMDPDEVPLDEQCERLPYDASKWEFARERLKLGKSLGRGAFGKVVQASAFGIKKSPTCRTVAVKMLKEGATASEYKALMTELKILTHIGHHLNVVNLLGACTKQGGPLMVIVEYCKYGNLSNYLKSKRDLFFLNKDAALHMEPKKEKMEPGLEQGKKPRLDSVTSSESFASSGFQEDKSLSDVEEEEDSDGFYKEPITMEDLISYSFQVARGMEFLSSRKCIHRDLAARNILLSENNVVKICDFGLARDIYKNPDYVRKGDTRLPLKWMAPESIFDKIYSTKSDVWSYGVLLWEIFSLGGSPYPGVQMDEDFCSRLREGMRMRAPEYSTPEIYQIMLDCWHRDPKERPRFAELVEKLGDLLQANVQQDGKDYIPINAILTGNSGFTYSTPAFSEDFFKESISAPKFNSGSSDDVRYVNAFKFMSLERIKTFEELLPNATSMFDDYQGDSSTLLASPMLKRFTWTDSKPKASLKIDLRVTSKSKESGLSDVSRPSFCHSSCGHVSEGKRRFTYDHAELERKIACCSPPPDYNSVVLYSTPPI

[6] = target: T2, soluble recombinant human VEGFR-1 …; experiment: ELISA: purified antibody on plate-coated rhuVEGFR-1 AP, O.D. 450
Procedure: as §1

[7] = target: T4, native VEGFR-1 expressed on the cell …; experiment: cell-based competition: cold VEGF at 200-fold molar excess over 125I-VEGF (2 ng/ml) on PAE-VEGFR-1 cells, gamma counting
Procedure: The binding of ¹²⁵1-VEGF to VEGFR-I on cell surface was performed using PAE-VEGFR-I expressing cells. […] Confluent cells were incubated in serum- and growth supplement-free Dulbecco's Modified Eagle Medium (DMEM)ZF-12 medium (Invitrogen, Carlsbad, Calif.) for 24 hours. Cells were rinsed once with ice-cold DMEMZF-12 medium containing 0.025 M HEPES and 1 mgZml bovine serum albumin (BSA). A serial dilution of anti-VEGFR-I antibody 18F1 or cold VEGF at the concentration of a 200-fold molar excess of labeled VEGF was added to each well in the plate and incubated at 4° C. for 1 hour. After wash, ¹²⁵I-VEGF was added at the concentration of 2 ngZml and was incubated at 4° C. for 2 hours on a platform shaker. The cells were washed three times with PBS containing 1 mgZml BSA and 0.25 mM CaCl₂, and were incubated for 5 minutes in the presence of 1% Triton X-100, 1 mgZml BSA, and 0.16% NaN₃ to remove bound VEGF. The soluble content of each well was counted in a gamma counter. The assays were performed in triplicate in at least three independent experiments and the data were analyzed using Prism GraphPad software 3.03.

Binder	EC50 (read off the curve) (mouse VEGFR-2 Fc)	EC50 [1]	IC50 [2]	IC50 [3]	Kd [4]	kon [4]	Inhibition of PlGF-induced DU4475 cell growth in vitro (IC50) [5]	EC50 [6]	binding result [7]
B1	~8 ng/mL								
B2		0.3 nM	0.7 nM	0.82 nM	0.121 nM	950000 M⁻¹ s⁻¹	66 nM		
B3		0.3 nM	0.73 nM	0.49 nM	0.07 nM	1.02e+06 M⁻¹ s⁻¹	44 nM		
B4		0.1 nM	0.82 nM	0.86 nM	0.069 nM	1.01e+06 M⁻¹ s⁻¹	43 nM	0.114 nM	
B5									binds
